In patent US20060286611A1, “Antibodies against biotinylated histones and related proteins and assays related thereto” (Board of Regents of University of Nebraska, priority 2005, published 2006):
Non-standard residues stand in square brackets, D forms with d. No end group written: not given here. *: point of attachment. Me2 = dimethyl-lysine (dimethyl-epsilon-NH2-L-lysine); pS = N[C@@H](COP(=O)(O)O)C(=O)O; Orn = NCCC[C@H](N)C(=O)O; For = O=C*

The compounds below were run against T1, biotinidase (Homo sapiens, UniProt P43251) (assay: Enzymatic biotinylation of synthetic histone H4 peptides by biotinidase). Conditions: human plasma as source of biotinidase, biocytin, 37° C., 45 min.
T1 construct: 60 μL of human plasma; from tissue; host or cells: human plasma
T1 sequence (P43251 22-523): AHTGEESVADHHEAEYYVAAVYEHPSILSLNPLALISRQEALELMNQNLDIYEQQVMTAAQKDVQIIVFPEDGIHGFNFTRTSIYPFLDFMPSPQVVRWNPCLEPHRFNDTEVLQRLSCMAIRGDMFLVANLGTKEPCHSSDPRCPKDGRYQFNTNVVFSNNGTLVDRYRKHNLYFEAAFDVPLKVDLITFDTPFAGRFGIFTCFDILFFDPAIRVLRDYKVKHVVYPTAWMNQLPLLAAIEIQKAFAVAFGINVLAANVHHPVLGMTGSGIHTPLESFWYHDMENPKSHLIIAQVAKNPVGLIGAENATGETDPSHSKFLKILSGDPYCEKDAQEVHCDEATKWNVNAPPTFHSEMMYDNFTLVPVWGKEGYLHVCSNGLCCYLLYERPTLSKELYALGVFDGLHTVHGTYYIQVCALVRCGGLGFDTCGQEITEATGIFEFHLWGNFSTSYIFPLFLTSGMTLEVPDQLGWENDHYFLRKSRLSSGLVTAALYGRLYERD
Format: biochemical
From the text: It has been proposed that the following catalytic sequence leads to biotinylation in histones (Hymes et al., 1995; Hyme and Wolf, 1999). First, biocytin is cleaved by biotinidase to form an intermediate, cysteine-bound biotin. Second, the biotinyl moiety from the cysteine residue is transferred to the ε-amino group of lysines in histones. In the present study, synthetic peptides were biotinylated enzymatically using human plasma (as source of biotinidase) and biocytin (as source of biotin) as described previously (Hymes et al., 1995). Peptide concentrations in stock solutions were adjusted to 50 mg/L; 20 μL of peptide solution was mixed with 1.88 mL of 50 mmol/L Tris (pH 8.0), 40 μL of 0.75 mmol/L biocytin and 60 μL of human plasma. Samples were incubated […] at 37° C. for 45 min and stored at −70° C. unless stated otherwise.
After enzymatic biotinylation, peptides were electrophoresed using 16% tricine polyacrylamide gels according to the manufacturer's instructions (Invitrogen, Carlsbad, Calif.). Peptides were electroblotted onto polyvinylidene fluoride membranes (Millipore, Bedford, Mass.), which were blocked with 50 mL of 30 g/L BSA. Peptide-bound biotin was probed with streptavidin peroxidase (Stanley et al., 2001).
“2: histone H4 positions 6-15, alanine in position 8 (Ac-GGAGLGKGGA) [Peptide 2]” was tested, and the “enzymatic biotinylation by biotinidase, peptide-bound biotin probed with streptavidin peroxidase” value was “decreased substantially”.
In the case of “3: histone H4 positions 6-15, alanine in position 12 (Ac-GGKGLGAGGA) [Peptide 3]”, the “enzymatic biotinylation by biotinidase, peptide-bound biotin probed with streptavidin peroxidase” value is reported as “decreased substantially”.
“4: histone H4 positions 6-15, alanine in positions 8 and 12 (Ac-GGAGLGAGGA) [Peptide 4]” was tested, and the “enzymatic biotinylation by biotinidase, peptide-bound biotin probed with streptavidin peroxidase” value was “did not undergo biotinylation”.
For “5: histone H4 positions 6-15, Ac-K in position 8 (Ac-GGK(Ac)GLGKGGA) [Peptide 5]”, the “enzymatic biotinylation by biotinidase, peptide-bound biotin probed with streptavidin peroxidase” value was “barely detectable”.
In the case of “6: histone H4 positions 6-15, Ac-K in position 12 (Ac-GGKGLGK(Ac)GGA) [Peptide 6]”, the “enzymatic biotinylation by biotinidase, peptide-bound biotin probed with streptavidin peroxidase” value is reported as “decreased biotinylation of the peptide”.
With “7: histone H4 positions 6-15, Dme-K in position 8 (Ac-GGK(Me2)GLGKGGA) [Peptide 7]” the “enzymatic biotinylation by biotinidase, peptide-bound biotin probed with streptavidin peroxidase” value was “decreased substantially”.
In the case of “8: histone H4 positions 6-15, Dme-K in position 12 (Ac-GGKGLGK(Me2)GGA) [Peptide 8]”, the “enzymatic biotinylation by biotinidase, peptide-bound biotin probed with streptavidin peroxidase” value is reported as “decreased substantially”.
In the case of “9: histone H4 positions 6-15, For-K in position 12 (Ac-GGKGLGK(For)GGA) [Peptide 9]”, the “enzymatic biotinylation by biotinidase, peptide-bound biotin probed with streptavidin peroxidase” value is reported as “decreased compared to the native peptide”.
In the case of “12: histone H4 positions 6-15, arginine in position 8 (Ac-GGRGLGKGGA) [Peptide 12]”, the “enzymatic biotinylation by biotinidase, peptide-bound biotin probed with streptavidin peroxidase” value is reported as “decreased substantially”.
“13: histone H4 positions 6-15, arginine in position 12 (Ac-GGKGLGRGGA) [Peptide 13]” was tested, and the “enzymatic biotinylation by biotinidase, peptide-bound biotin probed with streptavidin peroxidase” value was “decreased moderately”.
For “14: histone H4 positions 6-15, arginine in positions 8 and 12 (Ac-GGRGLGRGGA) [Peptide 14]”, the “enzymatic biotinylation by biotinidase, peptide-bound biotin probed with streptavidin peroxidase” value was “not detected”.
“15: histone H4 positions 6-15, glutamate in position 8 [Peptide 15]” was tested, and the “enzymatic biotinylation by biotinidase, peptide-bound biotin probed with streptavidin peroxidase” value was “not detectable”.
“16: histone H4 positions 6-15, glutamate in position 12 [Peptide 16]” was tested, and the “enzymatic biotinylation by biotinidase, peptide-bound biotin probed with streptavidin peroxidase” value was “not detectable”.
With “17: histone H4 positions 6-15, glutamine in position 8 (Ac-GGQGLGKGGA) [Peptide 17]” the “enzymatic biotinylation by biotinidase, peptide-bound biotin probed with streptavidin peroxidase” value was “decreased compared to the native peptide”.
In the case of “18: histone H4 positions 6-15, glutamine in position 12 (Ac-GGKGLGQGGA) [Peptide 18]”, the “enzymatic biotinylation by biotinidase, peptide-bound biotin probed with streptavidin peroxidase” value is reported as “decreased compared to the native peptide”.
“19: histone H4 positions 6-15, glutamine in positions 8 and 12 (Ac-GGQGLGQGGA) [Peptide 19]” was tested, and the “enzymatic biotinylation by biotinidase, peptide-bound biotin probed with streptavidin peroxidase” value was “no enzymatic biotinylation was detectable”.
In the case of “20: histone H4 positions 6-15, D-lysine in position 12 (Ac-GGKGLG[dK]GGA) [Peptide 20]”, the “enzymatic biotinylation by biotinidase, peptide-bound biotin probed with streptavidin peroxidase” value is reported as “decreased only moderately”.
“GGKGLGKGGA (Ac-GGKGLGKGGA) [Peptide 1, amino acids 6 through 15 in histone H4, native control]” was tested, and the “enzymatic biotinylation by biotinidase, peptide-bound biotin probed with streptavidin peroxidase” value was “efficiently biotinylated”.

Same assay, conditions: incubated with plasma and biocytin for 0 to 60 min
For “SGRGKGGKGLGKGGAKRHR [SEQ ID NO:7, N-terminal 19 amino acids of histone H4]”, the “time at which abundance of biotinylated peptide reached a plateau” value was 20 to 60 min.

Each compound was assayed against T1, biotinidase (assay: Enzymatic biotinylation of synthetic histone H3 peptides by biotinidase). Conditions: biotinidase and biocytin, 45 min.
Format: biochemical
In the case of `NC(=O)NCCC[C@H](N)C(=O)O` [citrulline], the “enzymatic biotinylation by biotinidase, peptide-bound biotin probed with streptavidin-peroxidase” value is reported as “relatively poor target for biotinylation”.
In the case of “N18-25: histone H3 amino acids 18-25, including K18 and K23 (RKQLATKA; listed as Homo sapiens) [Peptide N18-25]”, the “enzymatic biotinylation by biotinidase, peptide-bound biotin probed with streptavidin-peroxidase” value is reported as “better substrate for biotinylation”.
“TAAKSTGG [Peptide R8A6-13, histone H3 6-13, R8 substituted with alanine]” was tested, and the “enzymatic biotinylation by biotinidase, peptide-bound biotin probed with streptavidin-peroxidase” value was “increased considerably”.
For “TAOKSTGG (TA[Orn]KSTGG) [Peptide R8O6-13]”, the “enzymatic biotinylation by biotinidase, peptide-bound biotin probed with streptavidin-peroxidase” value was “increased considerably”.
With “TARASTGG [Peptide K9A6-13, histone H3 6-13, K9 substituted with alanine]” the “enzymatic biotinylation by biotinidase, peptide-bound biotin probed with streptavidin-peroxidase” value was “no biotinylation was observed”.
“TARKS(p)TGG (TARK[pS]TGG) [S10S(p)6-13, histone H3 6-13, phosphorylation of S10]” was tested, and the “enzymatic biotinylation by biotinidase, peptide-bound biotin probed with streptavidin-peroxidase” value was “poor target for biotinylation”.
In the case of “TARKSTGG [Peptide N6-13, native unmodified peptide, position 6-13 in histone H3]”, the “enzymatic biotinylation by biotinidase, peptide-bound biotin probed with streptavidin-peroxidase” value is reported as “moderate target for biotinylation”.

Each compound was assayed against T1, biotinidase (assay: Enzymatic biotinylation of synthetic histone H2A and H2A.X peptides by biotinidase). Conditions: human plasma as source of biotinidase, 75 μmol/L biocytin, pH 8.0, 37° C., up to 45 minutes.
Format: biochemical
From the text: In Examples described above, the inventors developed a procedure to identify amino acid residues in histones that are targets for biotinylation. […] Amino acid substitutions (e.g., lysine-to-alanine substitutions) in synthetic peptides are used to corroborate identification of biotinylation sites. In addition, amino acid modifications (e.g., acetylation of lysines) in peptides can be used to investigate the cross-talk between biotinylation of histones and other known modifications of histones.
Peptides from both the N- and C-terminal regions of histone H2A and H2A.X were included in the analysis of biotinylation sites. […] Reactions were quenched by adding an equal volume of Tricine gel loading buffer (Invitrogen, Carlsbad, Calif.).
For `NC(=O)NCCC[C@H](N)C(=O)O` [citrulline], the “enzymatic biotinylation by biotinidase, peptide-bound biotin probed with streptavidin peroxidase” value was “good targets for biotinylation”.

Each compound was assayed on histone H1 (assay: Proteolytic digestion of histone H1). Conditions: 20 mM.
Format: biochemical
Protocol: Here the inventors determined whether biotin release is mediated by proteolytic digestion of histones. One milligram of histone H1 was dissolved in 100 μl of 20 mM sodium acetate [pH 4.5]. 0.4 microliters of histone solution was mixed with 7.1 μl of nuclear extract containing 20 μg of protein; samples were incubated at 37° C. for 20 min. The following controls were tested: histones incubated without nuclear extract, and histones incubated with 2.5 microliter trypsin [with or without 20 mM of the trypsin inhibitor, phenylmethylsulphonylfluoride (PMSF)]. Reactions were terminated by heating the samples with equal volume of loading buffer at 72° C. for 10 min. Proteins were resolved using 4-12% Bis-Tris gels (Invitrogen, Carlsbad, Calif.) as described (Stanley et al., 2001) and were visualized using coomassie blue.
For `O=S(=O)(F)Cc1ccccc1` [PMSF, phenylmethylsulphonylfluoride], the “degradation of histone H1 by trypsin in the presence of the inhibitor” value was “prevented”.

Same assay, conditions: 37° C. for 20 min
In the case of trypsin, the “degradation of histone H1 by gel electrophoresis” value is reported as “degraded completely”.
